In the nanobody polyreactivity screen of Harvey et al. (2022):

experiment: yeast display, Sf9 membrane polyspecificity reagent, FACS + sequencing; frameworks hold sequencing errors
Summary of the method: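 Galactose-induced (36–48 hours) yeast carrying a synthetic nanobody display library were exposed to 10% biotinylated, detergent-solubilized Sf9 membrane reagent at 4 °C for 1 hour. FACS followed streptavidin microbead enrichment, using low and high (top ~1%) gates for expression (anti-HA) and reagent binding (streptavidin). Colony PCR, MiSeq 2 × 250 sequencing and CDR-length filtering followed. Labels for polyreactivity reflect the gate of origin.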

Sequence	polyreactivity (PSR sort gate)
QVQLQESGGGLVQAGGSLRQSYAASGYIFPSLAKGWYRQAPGKEREFVAAIGRGSTNNYADSVKGRFTISRDNAKKTAYQQMNSLKPEDTAVYYCAAAASPLTRHLYWGQGTQVTVSS	low polyreactivity
QVQLVESGGGLVQAGGSLRLSCAASGGTFYRYAMGWYRQAPGKERELVAVISKRGGTTYYADSVKGRFTISRDNAKITVYLQMNSLKPEDTAVYYCADRPYYWGQGTQVTVSS	high polyreactivity
QVQLVESGGGLVQAGGSLRLSCDASGSTFDNYAMGWYRQAPGKERELVAAITTGVTTYYADSVKGRFTISRDNAKNTVYLQMNSLKPEDTAVYYCAADYVSYSQARHEYGYWGQGTQVTVSS	low polyreactivity
QVQLVESGGGLVQAGGSLRLSCAASGSTFYYNAMGWYRQAPGKERELDARISRSGGSTYADSVKGRFTISRDNAKNTVYLQMNSLKPEDTAVYYCNADAYGTPEFTSYAVRYDYWGQGTQVTVSS	low polyreactivity
QVQLVESGGGLVQAGGSLRLSCAASGRIFNGNAMGWYRQAPGNERELVAAISGSGGSTYYADSVKGRFTISRDNAKNTVYLQMNSLKPEDTAVYYCATKRVVHYNYWGQGTQVTVSS	high polyreactivity
QVQLVESGGGLVQAGGSLRLSCAASGSIFYNYAMGWSRQAPGKERELVAAITANTGSTYYADSVKGRFTISRVNAKNTVYLQMNSLKPEDTAVYYCATTWTIRRYRYSPRLVDYWGQGTQVTVSS	low polyreactivity
QVQLVESGGGLVQAVGSLRLSCAASGSILASNAMGWYRQAPGKERELVAAITTSGGSTYYADSVKGRFTISRDNAKNTVYLQMNSLKPEDTAVYYCNAEYWLGRWLRYGYWGQGTQVTVSS	high polyreactivity
QVPLVESAGGLVQAGGSLRLSCAASGSTFYPYAMGWYRQAPGKERELVAAISSGGSTSYADSVKGRFTISRDNAKNTVYLQMNSLKPEDTEVYYCHASSPGAVPVYDYDYWGQGTQVTVSS	low polyreactivity
QDQLEESGGGLVQAGGSLRLSCAASGYTISPNDMGWYRQAPGKERELVAAITSSVGSTYYADSVKGRFSFSRDNAKNTVYLQMKSLKPEDTAVYYYWGQGTQVTVSS	low polyreactivity
QVQLVESGGGLVQAGGSLRLSCASSGRTLGGYAMGWYRQAPGKERELVAAITRRGGSTYYADSVKGRFTISRDNAKNTVYLLMNSLKTEDTAVYYCAARWYARSLTRFNYWGEGTQVTVSS	high polyreactivity
QVQLVESGGGLVQAGGSLRLSCAASGYTFKTYAMGWYRQAPVKERELVAAISGSGGSTYYADSVKGRFTISRDNAKNTVYLQMNSLKPEDTAVYYCNASPTTTPNFWRYDYWGQGTQVTVSS	high polyreactivity
QVQLVDSGGGLVQAGGSLRLSCAASGISFGVYAMGWYRQAPGKERELVAAISRRGASTYYADSVKGRFTISRDNAKTTVYLQMNILNPEDTAVYYCPAYLARRQYDYWGQGTKVTVSS	high polyreactivity
QVQLVESGGRLVQAGGSLRLSCAASGSIFRSYAMAWYRPAPGKERELVAGISYSGGSTYYADSVKGRFTISRDNAKNTVYLQMNSLKPEDTAVYYCNVDGGTYFFFVGAWGEYDYWGQGTQVTVSS	low polyreactivity
QVQLVESGGGLVQAGGSLRLSCAASGSILVAYAMGWYRQAPGKERELVAAITQGGGSTYYADSVKGRFTISRDNAKNTVYLQMNSLKPEDTAVYYCNVGANVYLLYFPSRGGVYDYGYWGKGTQVTVSS	low polyreactivity
QVQLQESGGGLVQACGIQRLSCAATGSISEGQDMGWYSRSPGKERECVAGIAPGATTYYADSLKGRFTISRDNAKKTVYLQMTSLKPEDTAVYYCAARSVTETDHDYWGQGSQVTVSS	low polyreactivity
QDQLVESGGGLVQAGGSLRLSCAASGSTLFIYARGWYRQAPGKEREFVAGISYSGGSTYYADSVKGRFTISRDNAKNTVYLQMNSLKPEDTAVYYCAAATVYLSWYYWGQGTQVTVSS	high polyreactivity
QVQLVESGGGLVQAGGSLRLSCAASGSIFSGYVMGWYRQAPGKERELVAAINSRAGRTYYADSVKGRFTISRDNAKNTVYLQMNSLKPEDTAVYYCNAPTSFHRGGGYWGQGTQVTVSS	high polyreactivity
QGQLVESGGGLVQAGGSLRLSCAASGRIFPYAMGWYRQAPGKERELVAAISRIGGITYYADSVKGRFTISRDNAKNTVYLQMNSLKPEDTAVYYCNARFHPYRWTFDYWGQGTQVTVSS	high polyreactivity
QVHLVESGGGLVQAGGSLRLSCSASGRTFGWNVMGWYRQAPGKERELVAAISGSGGSTYYADSVKGRFTISRDNAKTTVYLQMNSLKPEDTAVYYCAALYGPGREYDYWGQGTQVTVSS	low polyreactivity
QVQLVESGGGLVQAGGSLRLSCAASGITFAYYAMGWYRQAPGKERELVAAITRGGSTFYADSVKGRFTISRDNAKNTVYLQMNSLKPEDTAVYYCAKRYGTNTRYYHPYRYDYWGQGTQVTVSS	high polyreactivity
QVQLVESGGGLVQAGGSLRLSCAASGRTFYRNTMGWYRQAPGKEREFVAAISATAGRTYYADSVKGRFTISRDNAKNTVYLQMNSLKPEDTAVYYCAAVPLRNRWPNSWPALDYWGQGTQVTVSS	high polyreactivity

Sequence	polyreactivity (PSR sort gate)
HVQLVESGGGLVQAGGSLRLSCAASGFTIKYYGMGWYRQAPGKERELVAAISRRGGSTYYADSVKGRFTISRDNAKNTVYLQMNSLKPEDTAVYYCNAQFARSSGFNYWGQGTQVTVSS	high polyreactivity
QVQLQDSGGGLVQAGGSLRLSCAASGTIIWYSDLGWYRQAPGKERKFVAGIGFGSNSNFADSVRGRFTISRDNAKITVYLQMNSLKPEDTAVYYCEAVWFDYSTHRYWGQGTQVTVCS	high polyreactivity
QFQLVESVGGLVQAGGSLRLTCAASGRIFLNYDMGWYRQEPGKDRELVAAITTGGSTYADSVKGRFTISRDNAKNTVYLQMNSLKAEDTAVYYCANRDRNKRDNWGQGTQVTGSS	low polyreactivity
QVQLVESGGGLVQAGGSLRLSCAASGSNFPINAMGWYRQAPGKERELVAAISWRTGSTNYADSVKGRFTISRDNAMNTVYVQMNSLKPEDTAVFYCAASYATTRQRWLDYWGQGTQVTVSS	high polyreactivity
QVQLVESGGGLVQAGGSLRLICAASGRTSVVNAMGWYRQAPGKERELVAAITSGGSTHYADSVKGRFTISRDNAKNTVYLQITSLKPEDTAGYYFNARDRRRTNLLDYWGQATQVTVSS	low polyreactivity
QVQLVESGGGLVQAGGSLRLSCAASGSTFYTYAMGWYRKAPGKERELDAAISWSGGSTYYADSVKGRFTISRDNAKNTVYLQMNSLKPEDTAVYYCAADRPYAGRYWKGYHSALYDYWGQGTQVTVSS	low polyreactivity
QVQLVESGGGLVQAGGSLRLSCAASGFTFYPYARGWYRQAPGKERELVAAISNGDSTHYADSVKGRFTISRDNAKNTVYLQMNSLKPQDTAVYYCNAYTRYPFYFVTSKYDYWGQGNQVTVSS	low polyreactivity
QVQLVESGGGVVQAGGSLRLSCAGSGRTFGPYAMGWYRQAPGKERELVAAIRYIDDSTFYADSVKGRFTISRDKAKNTVYLQMNSLKPEDTAVYYCAAQRRVVGRHGLSLIRYDYWGQGTQVTVTS	low polyreactivity
QVQLVESGGGLVQAGGSLRLSCAASGSTFLSNAMGWYRPAPGKERELVAGIDYNDGSTYYADSVKGRFTISRDNAKNTVYLQMNSLKPEDTAVYYCAARWVFRRYVIGMDYWGQGTQVTVSS	low polyreactivity
QVQLVESGGGLVQAGGSLRLSCAATGSTFWPYAMGWYRQAPGKERELVAAIRVIGGSTYYADSVKGRFTISRDNAKNTVYLQMNSLKPEDTAVYYCNAYRPGGARFYARYRYDYCGQGTQVTVSS	low polyreactivity
QVQLVESVGGLDQAGGSLRLSCAASGFTFQYYAMGWYRQAPGKERELVAAITSNGGGTYYADSVKGRFTISRDNAKNTVYLQMNSLKPEDTAVYYCAADRWYSMDYWGQGTQVTVSS	high polyreactivity
QVQLVESGGGLVQAGGSLRLSCAASGRTFYYYTMGWYRQAPGKEREFVAAIRRSGGNTRYADSVKGRFTISRDNAKNTVYLQMNSLKPEDTAVYYCNAGYGYYYGRILQERDYWGQGTQVTVSS	high polyreactivity
QVQLVESGGGLVQAGGSLRFSCAASGSTFYGYVMGWYRQAPGKERELVAAISSSGGRTYYADSVKGRFTIARDYAKNTVYLQMNSLKPEDTAVYYCNTVQRYSTHYDYWGQGTQVTVSS	high polyreactivity
QVQLVESGGGLVQAGGSLRLSCAASGSTFTQYAMGWYRQAPAKERELFAAISWGGGTTRYADSVKGRFTISRDNAKNTVYLQMNSLKPEDTAVYYCAKRVRTGSVGNFNYWGQGTQVTVSS	high polyreactivity
QVQLVESGGGLVQAGGSLRLSCAASGFTFRPNAMGWYRPAPAKERELVAAISGSGGSTYYADSVKGRFTISRDNAKNTVYLQMNSLKPEDTAVYYFAADSYYDGDYWGQGTQVTVSS	low polyreactivity
QVQLVESGGGLVQAGGSLRLSCAASGRILYYYAMGWYRQAPGKERELVAAINSSGGSTYYADSVKGRFTISRDNAKNTVYLQMNSLKPEDTAVYYCAALRGNVLWYPPSYFRYDYWGQGTQVTVSS	high polyreactivity
QVQLVESGGGLVQAGGSLRLSCAASGRTFYYYAMGWYRQAPGKERELVAAISWRGGSTYYADSVKGRFTISRDNAKNTVYLQMNSLKPEDTAVYYCAVYTTYSRYRGYDYWGQGTQVTVSS	high polyreactivity
QDQLVESCGGLVQAGGSLRLSCAASGHIFIYYAMGWYRQAPWKERELVAVISGSGGRTYYADSVKGRFTISRDYAKNTVSLQMNSLKPEDTAVYYCAAAVRYYPHYDSWGQGTQVNVSS	low polyreactivity
QVQLVESAGGLVQAGGSLRLSCAASGSNFKYYAMGWYRQAPGKERELVAAINGSGGSTYYADSVKGRFTISRDNAKNTVYLQMNSLKPEDTAVYYCARASDYNKVSKSQRMDYWGQGTQVTVSS	high polyreactivity
QVQLVESGGGLVQAGGSLRLSCAASGLIFSKNVMGRYRQAPGKERELVAAISQRGGSTYYADSVKGRFTISRDNAKNTVYLQMNSLKPEDTAVYYCAADNTVSHEDYWGQGTQVTVSS	high polyreactivity
